The text below walks through data of PMC10786891, “Massively parallel profiling of RNA-targeting CRISPR-Cas13d”.

The chains are these.
B1: target 1 MT 5'PFS UCC 3'PFS UCC (mixed)
RNA 1: CACCCGUGCAAAAAUGCAGGGGUCUAAAACUGAGCGGAUAACCUCUCUAUGG
RNA 2: GGGAAUGGAUCCACAUCUACGAAUUCUCCCCAUAGAGAGGUUAUCCGCUCAUCCAGAUCGGAAGAGCACACGU
B2: target 1 MT 5'PFS CCA 3'PFS AUA (mixed)
RNA 1: CACCCGUGCAAAAAUGCAGGGGUCUAAAACUGAGCGGAUAACCUCUCUAUGG
RNA 2: GGGAAUGGAUCCACAUCUACGAAUUCCCACCAUAGAGAGGUUAUCCGCUCAAUAAGAUCGGAAGAGCACACGU
B3: target 1 MT 5'PFS UCC 3'PFS UCU (mixed)
RNA 1: CACCCGUGCAAAAAUGCAGGGGUCUAAAACUGAGCGGAUAACCUCUCUAUGG
RNA 2: GGGAAUGGAUCCACAUCUACGAAUUCUCCCCAUAGAGAGGUUAUCCGCUCAUCUAGAUCGGAAGAGCACACGU
B4: target 1 MT 5'PFS GUG 3'PFS UUC (mixed)
RNA 1: CACCCGUGCAAAAAUGCAGGGGUCUAAAACUGAGCGGAUAACCUCUCUAUGG
RNA 2: GGGAAUGGAUCCACAUCUACGAAUUCGUGCCAUAGAGAGGUUAUCCGCUCAUUCAGAUCGGAAGAGCACACGU
B5: target 1 MT 5'PFS GGA 3'PFS UAU (mixed)
RNA 1: CACCCGUGCAAAAAUGCAGGGGUCUAAAACUGAGCGGAUAACCUCUCUAUGG
RNA 2: GGGAAUGGAUCCACAUCUACGAAUUCGGACCAUAGAGAGGUUAUCCGCUCAUAUAGAUCGGAAGAGCACACGU
B6: target 1 MT 5'PFS GGA 3'PFS UAG (mixed)
RNA 1: CACCCGUGCAAAAAUGCAGGGGUCUAAAACUGAGCGGAUAACCUCUCUAUGG
RNA 2: GGGAAUGGAUCCACAUCUACGAAUUCGGACCAUAGAGAGGUUAUCCGCUCAUAGAGAUCGGAAGAGCACACGU
B7: target 1 MT 5'PFS GGA 3'PFS UAA (mixed)
RNA 1: CACCCGUGCAAAAAUGCAGGGGUCUAAAACUGAGCGGAUAACCUCUCUAUGG
RNA 2: GGGAAUGGAUCCACAUCUACGAAUUCGGACCAUAGAGAGGUUAUCCGCUCAUAAAGAUCGGAAGAGCACACGU
B8: target 1 G15C,G17U (mixed)
RNA 1: CACCCGUGCAAAAAUGCAGGGGUCUAAAACUGAGCGGAUAACCUCUCUAUGG
RNA 2: GGGAAUGGAUCCACAUCUACGAAUUCGUACCAUAUACAGGUUAUCCGCUCACCGAGAUCGGAAGAGCACACGU
B9: target 1 MT 5'PFS GUG 3'PFS GUU (mixed)
RNA 1: CACCCGUGCAAAAAUGCAGGGGUCUAAAACUGAGCGGAUAACCUCUCUAUGG
RNA 2: GGGAAUGGAUCCACAUCUACGAAUUCGUGCCAUAGAGAGGUUAUCCGCUCAGUUAGAUCGGAAGAGCACACGU
B10: target 1 MT 5'PFS GAG 3'PFS AAU (mixed)
RNA 1: CACCCGUGCAAAAAUGCAGGGGUCUAAAACUGAGCGGAUAACCUCUCUAUGG
RNA 2: GGGAAUGGAUCCACAUCUACGAAUUCGAGCCAUAGAGAGGUUAUCCGCUCAAAUAGAUCGGAAGAGCACACGU
B11: target 1 MT 5'PFS GUG 3'PFS UUG (mixed)
RNA 1: CACCCGUGCAAAAAUGCAGGGGUCUAAAACUGAGCGGAUAACCUCUCUAUGG
RNA 2: GGGAAUGGAUCCACAUCUACGAAUUCGUGCCAUAGAGAGGUUAUCCGCUCAUUGAGAUCGGAAGAGCACACGU
B12: target 1 C2G,C6G (mixed)
RNA 1: CACCCGUGCAAAAAUGCAGGGGUCUAAAACUGAGCGGAUAACCUCUCUAUGG
RNA 2: GGGAAUGGAUCCACAUCUACGAAUUCGUACCAUAGAGAGGUUAUCGGCUGACCGAGAUCGGAAGAGCACACGU
B13: target 1 MT 5'PFS GUG 3'PFS CAU (mixed)
RNA 1: CACCCGUGCAAAAAUGCAGGGGUCUAAAACUGAGCGGAUAACCUCUCUAUGG
RNA 2: GGGAAUGGAUCCACAUCUACGAAUUCGUGCCAUAGAGAGGUUAUCCGCUCACAUAGAUCGGAAGAGCACACGU
B14: target 1 insG 3' of 9,insG 3' of 1 (mixed)
RNA 1: CACCCGUGCAAAAAUGCAGGGGUCUAAAACUGAGCGGAUAACCUCUCUAUGG
RNA 2: GGGAAUGGAUCCACAUCUACGAAUUCGUACCAUAGAGAGGUUAGUCCGCUCAGCCGAGAUCGGAAGAGCACACGU
B15: target 1 MT 5'PFS CUC 3'PFS CUG (mixed)
RNA 1: CACCCGUGCAAAAAUGCAGGGGUCUAAAACUGAGCGGAUAACCUCUCUAUGG
RNA 2: GGGAAUGGAUCCACAUCUACGAAUUCCUCCCAUAGAGAGGUUAUCCGCUCACUGAGAUCGGAAGAGCACACGU
B16: target 1 MT 5'PFS GUG 3'PFS CAC (mixed)
RNA 1: CACCCGUGCAAAAAUGCAGGGGUCUAAAACUGAGCGGAUAACCUCUCUAUGG
RNA 2: GGGAAUGGAUCCACAUCUACGAAUUCGUGCCAUAGAGAGGUUAUCCGCUCACACAGAUCGGAAGAGCACACGU
B17: target 1 MT 5'PFS CCA 3'PFS AUG (mixed)
RNA 1: CACCCGUGCAAAAAUGCAGGGGUCUAAAACUGAGCGGAUAACCUCUCUAUGG
RNA 2: GGGAAUGGAUCCACAUCUACGAAUUCCCACCAUAGAGAGGUUAUCCGCUCAAUGAGAUCGGAAGAGCACACGU
B18: target 1 MT 5'PFS CUC 3'PFS CUA (mixed)
RNA 1: CACCCGUGCAAAAAUGCAGGGGUCUAAAACUGAGCGGAUAACCUCUCUAUGG
RNA 2: GGGAAUGGAUCCACAUCUACGAAUUCCUCCCAUAGAGAGGUUAUCCGCUCACUAAGAUCGGAAGAGCACACGU
B19: target 1 MT 5'PFS CCA 3'PFS UCU (mixed)
RNA 1: CACCCGUGCAAAAAUGCAGGGGUCUAAAACUGAGCGGAUAACCUCUCUAUGG
RNA 2: GGGAAUGGAUCCACAUCUACGAAUUCCCACCAUAGAGAGGUUAUCCGCUCAUCUAGAUCGGAAGAGCACACGU
B20: target 1 MT 5'PFS UUU 3'PFS ACU (mixed)
RNA 1: CACCCGUGCAAAAAUGCAGGGGUCUAAAACUGAGCGGAUAACCUCUCUAUGG
RNA 2: GGGAAUGGAUCCACAUCUACGAAUUCUUUCCAUAGAGAGGUUAUCCGCUCAACUAGAUCGGAAGAGCACACGU
B21: target 1 MT 5'PFS UUU 3'PFS ACC (mixed)
RNA 1: CACCCGUGCAAAAAUGCAGGGGUCUAAAACUGAGCGGAUAACCUCUCUAUGG
RNA 2: GGGAAUGGAUCCACAUCUACGAAUUCUUUCCAUAGAGAGGUUAUCCGCUCAACCAGAUCGGAAGAGCACACGU
B22: target 1 MT 5'PFS GGA 3'PFS UAC (mixed)
RNA 1: CACCCGUGCAAAAAUGCAGGGGUCUAAAACUGAGCGGAUAACCUCUCUAUGG
RNA 2: GGGAAUGGAUCCACAUCUACGAAUUCGGACCAUAGAGAGGUUAUCCGCUCAUACAGAUCGGAAGAGCACACGU
B23: target 1 MT 5'PFS CCA 3'PFS UCC (mixed)
RNA 1: CACCCGUGCAAAAAUGCAGGGGUCUAAAACUGAGCGGAUAACCUCUCUAUGG
RNA 2: GGGAAUGGAUCCACAUCUACGAAUUCCCACCAUAGAGAGGUUAUCCGCUCAUCCAGAUCGGAAGAGCACACGU
B24: target 1 MT 5'PFS GUG 3'PFS CAA (mixed)
RNA 1: CACCCGUGCAAAAAUGCAGGGGUCUAAAACUGAGCGGAUAACCUCUCUAUGG
RNA 2: GGGAAUGGAUCCACAUCUACGAAUUCGUGCCAUAGAGAGGUUAUCCGCUCACAAAGAUCGGAAGAGCACACGU
B25: target 1 MT 5'PFS GAG 3'PFS AAG (mixed)
RNA 1: CACCCGUGCAAAAAUGCAGGGGUCUAAAACUGAGCGGAUAACCUCUCUAUGG
RNA 2: GGGAAUGGAUCCACAUCUACGAAUUCGAGCCAUAGAGAGGUUAUCCGCUCAAAGAGAUCGGAAGAGCACACGU
B26: target 1 MT 5'PFS CCA 3'PFS UCA (mixed)
RNA 1: CACCCGUGCAAAAAUGCAGGGGUCUAAAACUGAGCGGAUAACCUCUCUAUGG
RNA 2: GGGAAUGGAUCCACAUCUACGAAUUCCCACCAUAGAGAGGUUAUCCGCUCAUCAAGAUCGGAAGAGCACACGU
B27: target 1 MT 5'PFS GUG 3'PFS CAG (mixed)
RNA 1: CACCCGUGCAAAAAUGCAGGGGUCUAAAACUGAGCGGAUAACCUCUCUAUGG
RNA 2: GGGAAUGGAUCCACAUCUACGAAUUCGUGCCAUAGAGAGGUUAUCCGCUCACAGAGAUCGGAAGAGCACACGU

This series has as its target T1, EsCas13d, nuclease-dead (Eubacterium siraeum, UniProt B0MS50, R295A;H300A;R849A;H854A).
T1 sequence: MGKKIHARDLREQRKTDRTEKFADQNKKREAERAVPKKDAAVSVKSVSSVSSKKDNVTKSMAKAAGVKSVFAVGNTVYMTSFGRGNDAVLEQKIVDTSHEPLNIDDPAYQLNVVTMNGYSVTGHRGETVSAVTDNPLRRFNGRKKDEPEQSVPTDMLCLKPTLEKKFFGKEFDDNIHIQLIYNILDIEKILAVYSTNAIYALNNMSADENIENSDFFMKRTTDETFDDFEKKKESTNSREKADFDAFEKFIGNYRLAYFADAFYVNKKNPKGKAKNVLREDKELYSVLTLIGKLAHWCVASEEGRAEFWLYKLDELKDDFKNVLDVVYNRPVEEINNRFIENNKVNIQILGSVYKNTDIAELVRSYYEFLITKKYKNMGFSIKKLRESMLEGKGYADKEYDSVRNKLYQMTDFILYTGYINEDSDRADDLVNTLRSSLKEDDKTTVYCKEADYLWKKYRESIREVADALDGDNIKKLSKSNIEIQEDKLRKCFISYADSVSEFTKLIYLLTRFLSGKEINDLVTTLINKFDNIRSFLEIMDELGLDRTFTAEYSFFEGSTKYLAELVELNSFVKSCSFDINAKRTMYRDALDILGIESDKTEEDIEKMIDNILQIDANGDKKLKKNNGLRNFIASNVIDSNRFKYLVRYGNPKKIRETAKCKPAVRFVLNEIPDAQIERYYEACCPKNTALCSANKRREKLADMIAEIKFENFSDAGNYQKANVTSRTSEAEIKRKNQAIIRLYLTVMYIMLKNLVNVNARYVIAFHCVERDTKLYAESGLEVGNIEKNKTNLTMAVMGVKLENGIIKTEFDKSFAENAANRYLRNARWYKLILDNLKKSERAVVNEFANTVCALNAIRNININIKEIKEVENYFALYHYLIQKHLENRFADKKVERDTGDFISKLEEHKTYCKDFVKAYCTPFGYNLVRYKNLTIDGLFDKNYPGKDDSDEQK
The experiment in a line: crRNA (strand 1, pre-loaded); Mg2+; 40 mM Tris-HCl pH 7.5, 150 mM NaCl, 6 mM MgCl2, 1 mM DTT, 0.1% Tween-20, 0.2 mg/ml BSA; 25 C; 10 min per concentration, then washed. The conditions noted are these: tags: His6-TwinStrep-SUMO cleaved; N-terminal SNAP kept (SNAP-Surface 488); label: 3' end held by stalled T7 RNA polymerase.
The term Kd denotes the concentration at which binding is half-saturated. A higher Kd goes with lower affinity. For the molecule B1, the Kd is 0.0121 ± 0.0019 µM.

The molecule B2 showed a Kd of 0.0061 ± 0.0017 µM.

As for B3, the Kd is 0.023 ± 0.008 µM.

Take B4: the Kd turned out to be 0.0116 ± 0.0009 µM.

B5 registered a Kd of 0.0117 ± 0.0015 µM.

Take B6: the Kd was determined as 0.0176 ± 0.00405 µM.

Molecule B7 came in with a dissociation constant (Kd) of 0.0219 ± 0.0049 µM.

With B8, the Kd turned out to be 0.09 ± 0.04 µM.

B9 returned a Kd of 0.0179 ± 0.00275 µM.

For B10, the affinity, expressed as Kd, was 0.039 ± 0.0115 µM.

The molecule B11 returned a dissociation constant Kd of 0.00786 ± 0.00047 µM.

With B12, binding was characterised by a dissociation constant (Kd) of 0.00446 ± 0.00023 µM.

Molecule B13 returned a Kd of 0.0184 ± 0.002 µM.

Take B14: the Kd amounted to 0.0192 ± 0.0023 µM.

For the molecule B15, the Kd is around 0.027 µM.

In turn, B16 yielded a Kd of 0.0266 ± 0.0028 µM.

On to B17, for which the Kd was around 0.00815 µM.

Molecule B18 displayed a Kd of around 0.039 µM.

In the case of B19, the Kd was found to be 0.0049 ± 0.00245 µM.

Take B20: the Kd is 0.0213 ± 0.0041 µM.

In the case of B21, the Kd is around 0.0465 µM.

In turn, B22 yielded a Kd of 0.014 ± 0.006 µM.

Turning to B23, the Kd is around 0.0045 µM.

With B24, the Kd came out at 0.031 ± 0.0045 µM.

As for B25, the Kd is around 0.06 µM.

As to B26, the affinity, expressed as Kd, was 0.00655 ± 0.0018 µM.

As to B27, binding was characterised by a dissociation constant (Kd) of 0.0227 ± 0.002 µM.
